Consider 20 molecules from PMC4869123 (Scientific Reports, 2016).

The assay concerns the target T1, biotinylated recombinant human IL-17A (rhIL-17, R&D Systems #317-ILB) (human, UniProt Q16552 24-155, biotinylated).
T1 construct: IL-17A, human, recombinant; also called Biotinylated IL-17A; source: bought: R&D Systems
The conditions noted are these: both partners purified.

Where no end group is shown, it is not given here.

T1 sequence (Q16552 24-155): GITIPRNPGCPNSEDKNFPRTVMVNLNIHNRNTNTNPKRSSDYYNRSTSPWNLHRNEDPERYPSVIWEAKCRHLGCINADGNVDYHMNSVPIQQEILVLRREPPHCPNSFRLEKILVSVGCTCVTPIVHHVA

B1: peptide 3 (peptide)
peptide: Ac-IVVTMPADLWDWIRK
modifications: not fully specified (C-terminus)
notes: analogue of peptide 2, K at position 15; made on Rink resin; a C-terminal amide is surmised; source: synthetic peptide
For the molecule B1, the IC50 (as a rule, the midpoint of a concentration-inhibition curve) amounted to 66 nM.

B2: peptide 16 (peptide)
peptide: Ac-IAVTMPADLWDWIRA
modifications: not fully specified (C-terminus)
notes: analogue of peptide 2, A at position 2; made on Rink resin; a C-terminal amide is surmised; source: synthetic peptide
With B2, the IC50 was 149 nM.

B3: peptide 13 (peptide)
peptide: Ac-IVVTAPADLWDWIRA
modifications: not fully specified (C-terminus)
notes: analogue of peptide 2, A at position 5; made on Rink resin; a C-terminal amide is surmised; source: synthetic peptide
In the case of B3, the IC50 stood at 11 nM.

B4: peptide 15 (peptide)
peptide: Ac-IVATMPADLWDWIRA
modifications: not fully specified (C-terminus)
notes: analogue of peptide 2, A at position 3; made on Rink resin; a C-terminal amide is surmised; source: synthetic peptide
As to B4, the IC50 was 5720 nM.

B5: peptide 9 (peptide)
peptide: Ac-IVVTMPADAWDWIRA
modifications: not fully specified (C-terminus)
notes: analogue of peptide 2, A at position 9; made on Rink resin; a C-terminal amide is surmised; source: synthetic peptide
On to B5, for which the IC50 came out at 640 nM.

B6: peptide 6 (peptide)
peptide: Ac-IVVTMPADLWDAIRA
notes: analogue of peptide 2, A at position 12; made on Rink resin; a C-terminal amide is surmised; also called W12A variant; source: synthetic peptide
For the molecule B6, the 50% inhibitory concentration (IC50) worked out at 7450 nM.

B7: peptide 10 (peptide)
peptide: Ac-IVVTMPAALWDWIRA
modifications: not fully specified (C-terminus)
notes: analogue of peptide 2, A at position 8; made on Rink resin; a C-terminal amide is surmised; source: synthetic peptide
Turning to B7, the IC50 is 4020 nM.

B8: peptide 7 (peptide)
peptide: Ac-IVVTMPADLWAWIRA
modifications: not fully specified (C-terminus)
notes: analogue of peptide 2, A at position 11; made on Rink resin; a C-terminal amide is surmised; source: synthetic peptide
Consider B8, for which the IC50 was 474 nM.

B9: peptide 21 (peptide)
peptide: Ac-ITVTMPADLWDWIRA
modifications: not fully specified (C-terminus)
notes: analogue of peptide 2, T at position 2; made on Rink resin; a C-terminal amide is surmised; also called V2T; source: synthetic peptide
With B9, the IC50 was found to be 31 nM.

B10: peptide 22 (peptide)
peptide: Ac-IWVTMPADLWDWIRA
modifications: not fully specified (C-terminus)
notes: analogue of peptide 2, W at position 2; made on Rink resin; a C-terminal amide is surmised; source: synthetic peptide
With B10, the IC50 was found to be 522 nM.

B11: peptide 5 (peptide)
peptide: Ac-IVVTMPADLWDWARA
modifications: not fully specified (C-terminus)
notes: analogue of peptide 2, A at position 13; made on Rink resin; a C-terminal amide is surmised; source: synthetic peptide
As to B11, the IC50 was 402 nM.

B12: peptide 4 (peptide)
peptide: Ac-IVVTMPADLWDWIAA
modifications: not fully specified (C-terminus)
notes: analogue of peptide 2, A at position 14; made on Rink resin; a C-terminal amide is surmised; source: synthetic peptide
As for B12, the IC50 came to 172 nM.

B13: peptide 20 (peptide)
peptide: Ac-IRVTMPADLWDWIRA
modifications: not fully specified (C-terminus)
notes: analogue of peptide 2, R at position 2; made on Rink resin; a C-terminal amide is surmised; source: synthetic peptide
Turning to B13, the half-maximal inhibitory concentration (IC50) came to 117 nM.

B14: peptide 8 (peptide)
peptide: Ac-IVVTMPADLADWIRA
modifications: not fully specified (C-terminus)
notes: analogue of peptide 2, A at position 10; made on Rink resin; a C-terminal amide is surmised; source: synthetic peptide
Take B14: the IC50 amounted to 524 nM.

B15: peptide 19 (peptide)
peptide: Ac-IQVTMPADLWDWIRA
modifications: not fully specified (C-terminus)
notes: analogue of peptide 2, Q at position 2; made on Rink resin; a C-terminal amide is surmised; source: synthetic peptide
For B15, the IC50 is 71 nM.

B16: peptide 23 (peptide)
peptide: Ac-IYVTMPADLWDWIRA
modifications: not fully specified (C-terminus)
notes: analogue of peptide 2, Y at position 2; made on Rink resin; a C-terminal amide is surmised; source: synthetic peptide
Take B16: the IC50 was 64 nM.

B17: peptide 17 (peptide)
peptide: Ac-AVVTMPADLWDWIRA
modifications: not fully specified (C-terminus)
notes: analogue of peptide 2, A at position 1; made on Rink resin; a C-terminal amide is surmised; source: synthetic peptide
Regarding B17, the IC50 came out at 167 nM.

B18: peptide 12 (peptide)
peptide: Ac-IVVTMAADLWDWIRA
modifications: not fully specified (C-terminus)
notes: analogue of peptide 2, A at position 6; made on Rink resin; a C-terminal amide is surmised; source: synthetic peptide
As for B18, the IC50 amounted to 2650 nM.

B19: peptide 18 (peptide)
peptide: Ac-IHVTMPADLWDWIRA
modifications: not fully specified (C-terminus)
notes: analogue of peptide 2, H at position 2; made on Rink resin; a C-terminal amide is surmised; also called V2H; source: synthetic peptide
As to B19, the IC50 stood at 45 nM.

B20: peptide 14 (peptide)
peptide: Ac-IVVAMPADLWDWIRA
modifications: not fully specified (C-terminus)
notes: analogue of peptide 2, A at position 4; made on Rink resin; a C-terminal amide is surmised; source: synthetic peptide
On to B20, for which the IC50 was found to be 195 nM.
